Laboratory results from patent publication US9618511B2, “Methods and compositions for treating alzheimer's disease” (Eleanore Bennett Charitable Trust #2, priority 2008, dated 2017).

How the values were obtained:
pre-activated Akt1 = biological target: T1, pre-activated Akt1 (Mus musculus, UniProt P31750); assay: In vitro kinase assay on pre-activated (insulin-conditioned) Akt1; format: biochemical, mouse (C2C12 myotubes); details: 10 μM peptide
T1 construct: Akt1 was immunoprecipitated from control and insulin treated C2C12 myotubes for in vitro kinase assay; endogenous in cells; host or cells: insulin-treated mouse C2C12 myotubes
T1 sequence (P31750 whole entry): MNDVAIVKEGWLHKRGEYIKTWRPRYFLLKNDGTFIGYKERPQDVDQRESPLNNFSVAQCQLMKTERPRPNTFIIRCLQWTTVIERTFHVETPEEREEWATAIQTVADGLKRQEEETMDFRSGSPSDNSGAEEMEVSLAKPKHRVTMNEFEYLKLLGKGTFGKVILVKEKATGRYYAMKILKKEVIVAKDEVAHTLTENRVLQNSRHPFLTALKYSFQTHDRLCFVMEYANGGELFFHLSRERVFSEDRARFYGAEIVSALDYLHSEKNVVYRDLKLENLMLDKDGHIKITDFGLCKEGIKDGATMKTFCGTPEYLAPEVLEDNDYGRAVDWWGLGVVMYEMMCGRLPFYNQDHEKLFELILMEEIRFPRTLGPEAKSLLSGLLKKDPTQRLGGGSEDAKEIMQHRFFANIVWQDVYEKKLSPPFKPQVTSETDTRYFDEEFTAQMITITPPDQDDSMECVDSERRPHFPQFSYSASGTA
Method: Akt1 was immunoprecipitated (IP) overnight from 100 μg of the human brain sample or from C2C12 myotubes infected with adenovirus encoding Aβ using a 1:100 dilution of goat anti-Akt1 antibody. The following morning, 40 μl of a 50% slurry of protein G-Agarose (PGA) (Roche Applied Science) was added for an additional 1.5 hours. The beads were washed twice with wash buffer [1× phosphate buffered saline (PBS), 0.5% NP-40, 0.1 mM Na3VO4] and twice with kinase buffer [25 mM Tris (pH 7.5), 2 mM DTT, 0.1 mM Na3VO4, 10 mM MgCl2]. ATP (200 μM) and GSK-3 fusion protein (1 μg/50 μl) were added in the presence of kinase buffer, and the final reaction (50 μl) was incubated 30 minutes at 30° C. The reaction was stopped by adding 40 μl of Laemmli buffer. 20 μl of sample was loaded onto a 10% polyacrylamide gel for fractionation and western detection development.
Variably however, the degree of inhibition sometimes exceeded the baseline activity in the absence of PDK. Thus, it is possible that Aβ may have an additional action to deactivate Akt. […] Insulin stimulated Akt activity in extracts made from C2C12myotube cultures (FIG. 9A, 3rd row, lane 2 vs. 1). […]
In FIG. 9B Aβ42 (10 μM) and scrambled Aβ42 had no effect on insulin-conditioned Akt1 activity. Protein phosphatase 2A (PP2A; 5 μg/ml) decreased levels of both p-Akt (Ser473) and Akt activity (p-GSK-3 α/β), quantified by densitometry below.

[1] = biological target: T2, association between PDK1 and Akt1 (Mus musculus, UniProt Q9Z2A0); assay: PDK and Akt1 interaction assay (cell extracts, IP/western pull-down); format: binding, mouse (C2C12 myotubes); details: for association between Akt and PDK1 (co-immunoprecipitation): 5 μM, mixed cell extracts, 30 min at 30° C.
T2 construct: These were relatively enriched with endogenous PDK; expressed in transfected cells; host or cells: mouse C2C12 myotubes infected with Adv WT-Akt; control C2C12 extracts as source of endogenous PDK1
T2 sequence (Q9Z2A0 1-559): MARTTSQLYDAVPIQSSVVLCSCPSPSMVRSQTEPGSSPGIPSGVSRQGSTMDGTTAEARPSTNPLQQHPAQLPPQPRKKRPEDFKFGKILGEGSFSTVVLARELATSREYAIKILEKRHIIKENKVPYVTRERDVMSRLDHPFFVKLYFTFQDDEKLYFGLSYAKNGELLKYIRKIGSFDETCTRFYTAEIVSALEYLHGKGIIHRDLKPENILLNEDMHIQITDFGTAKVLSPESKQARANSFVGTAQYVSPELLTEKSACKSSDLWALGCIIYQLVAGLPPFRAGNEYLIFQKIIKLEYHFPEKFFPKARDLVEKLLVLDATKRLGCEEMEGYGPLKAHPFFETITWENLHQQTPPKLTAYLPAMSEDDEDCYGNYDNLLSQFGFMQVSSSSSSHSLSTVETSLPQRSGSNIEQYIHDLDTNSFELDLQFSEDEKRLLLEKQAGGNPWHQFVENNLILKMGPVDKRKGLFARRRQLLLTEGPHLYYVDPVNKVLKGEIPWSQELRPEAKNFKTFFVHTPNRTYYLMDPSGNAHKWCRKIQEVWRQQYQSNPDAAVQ
Method: Accordingly, the effect of Aβ on PDK/Akt interactions may be evaluated in any suitable in vitro assay. In some embodiments, PDK1 may be prepared from extracts of mouse C2C12 myotube cultures. To increase the amount of available Akt, this protein may be prepared from C2C12 myotubes that had previously been infected with an adenovirus expressing wild type Akt (Adv-wtAkt). In some embodiments, to measure the interaction between these proteins, the cell extracts above were mixed for 30 minutes at 30° C. either in the presence or absence of added 5 μM Aβ1-42. […] The inability of PDK1 to interact with its target Akt led to a decrease in Akt activation and a loss of the subsequent downstream phosphorylations (e.g., GSK3β peptide as in FIGS. 3A and 3C, not shown).
For cell-based interaction studies, intracellular Aβ42 production was induced by infecting C2C12 myotubes with Adv Aβ/TetOn. These cell extracts (100 μg) were used to IP endogenous Akt, and from this pull-down, determine the levels of associated PDK by western blot. The in vitro interaction study involved first enriching for Akt through viral-mediated expression of WT-Akt. Akt-enriched/PDK-depleted extract was then prepared by removing the PDK, via immunoprecipitation, from the Akt-enriched cell extract. Akt-depleted extracts were prepared from control extracts by pre-immunoprecipitating Akt. These were relatively enriched with endogenous PDK. The enrichments and depletions were confirmed by western blot analysis. The interaction assay contained a mixture of 100 μg Akt-enriched and 100 μg control cell extract in the presence or absence of Aβ42 (up to 10 μM). The mixtures were incubated for 30 minutes at 30° C., followed by overnight incubation at 4° C. with goat anti-Akt1. Protein G beads were added with mixing for 1.5 hr. PDK1 and Akt1 levels were determined by western blot. In control experiments, 100 μg of Akt-enriched, PDK-depleted extract and 100 μg of a control extract depleted for Akt were mixed in the presence or absence of Aβ42 (up to 5 μM) and subjected to the same analyses.

Aβ42: synthetic 42 amino acid β-amyloid peptide, forward sequence, freshly prepared, predominantly monomeric (BioSource)
insulin-conditioned Akt1 activity and p-Ser473 levels (pre-activated Akt1): no effect | association between Akt and PDK1 (co-immunoprecipitation) [1]: pulled-down less PDK | association between Akt and PDK1 (co-immunoprecipitation) ([1]; listed as Aβ1-42): dramatic reduction | pull-down of PDK1 with Akt1 ([1]; 10 μM, Akt-enriched plus control extracts): abrogated
